Residue numbers refer to the chain shown, from its start. Where two headings read alike, the source gives them in different places.
Legend:
[1] = target: T1, B7-H2 (Y53A) mutant, full length with C terminal GFP tag, on 293T cells (human, UniProt O75144 19-302, The C-terminal GFP reporter is not carried in the letters.); assay: flow cytometry; ICOSIg binding to 293T cells expressing the mutant
T1 construct: not shown: C-terminal GFP tag and any linker to it
T1 sequence: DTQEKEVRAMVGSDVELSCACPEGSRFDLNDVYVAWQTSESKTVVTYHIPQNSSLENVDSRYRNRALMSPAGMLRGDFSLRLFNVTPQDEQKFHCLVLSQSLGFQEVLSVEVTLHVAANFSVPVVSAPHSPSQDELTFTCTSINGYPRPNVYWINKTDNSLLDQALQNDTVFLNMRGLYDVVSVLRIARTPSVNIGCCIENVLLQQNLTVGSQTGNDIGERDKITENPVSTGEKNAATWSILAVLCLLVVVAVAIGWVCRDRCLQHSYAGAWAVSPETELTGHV
Text: (§1) These residues were all converted to alanine, a small […] amino acid with neutral charge, to avoid a large overall structure modulation (16).

[2] = target: T2, B7-H2 (Y51A) mutant, full length with C terminal GFP tag, on 293T cells (human, UniProt O75144 19-302, The C-terminal GFP reporter is not carried in the letters.); assay: as above
T2 construct: not shown: C-terminal GFP tag and any linker to it
T2 sequence: T1 sequence with Y33A, A35Y
Text: as §1

[3] = target: T3, human ICOS, full length, expressed on cells (ICOS+293T cells) (human, UniProt Q9Y6W8 21-199); assay: CDS well image, 293T cells transfected with the human gene, stained with the human fusion protein
T3 construct: This id also stands for ICOS on human T cells in the functional rows
T3 sequence: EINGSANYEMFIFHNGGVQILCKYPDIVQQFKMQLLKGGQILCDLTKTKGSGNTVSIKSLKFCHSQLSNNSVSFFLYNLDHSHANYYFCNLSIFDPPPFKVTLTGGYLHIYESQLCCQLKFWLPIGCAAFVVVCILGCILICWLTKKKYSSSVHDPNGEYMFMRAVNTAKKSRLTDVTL

[4] = target: T4, human B7-DC expressed on 293T cells (human, UniProt Q9BQ51 20-273); assay: as above
T4 construct: whole, on cells
T4 sequence (looked up): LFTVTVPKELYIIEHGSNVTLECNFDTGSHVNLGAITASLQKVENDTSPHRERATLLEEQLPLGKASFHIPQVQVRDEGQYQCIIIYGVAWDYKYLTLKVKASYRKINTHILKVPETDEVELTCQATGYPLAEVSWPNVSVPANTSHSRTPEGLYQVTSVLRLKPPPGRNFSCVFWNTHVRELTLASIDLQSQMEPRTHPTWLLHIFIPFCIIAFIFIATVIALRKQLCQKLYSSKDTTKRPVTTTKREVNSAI

[5] = target: T5, human B7-H2Ig fusion protein (human, UniProt O75144 19-258); assay: SPR (BIAcore 3000); comparison of ICOSIg and CD28Ig on immobilized B7-H2Ig
T5 construct: Ig (Fc) part not given
T5 sequence: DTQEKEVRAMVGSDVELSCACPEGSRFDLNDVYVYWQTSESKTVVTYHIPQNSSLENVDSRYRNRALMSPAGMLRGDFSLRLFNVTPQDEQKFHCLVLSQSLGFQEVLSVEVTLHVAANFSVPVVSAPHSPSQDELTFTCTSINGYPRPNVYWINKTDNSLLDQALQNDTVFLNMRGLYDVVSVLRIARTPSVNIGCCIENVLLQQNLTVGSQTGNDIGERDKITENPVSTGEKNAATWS
Procedure: (§2) For all experiments, the same fusion proteins were injected into uncoated control flow cells to serve as the control. Binding data was overlaid with the fit of 1:1 interaction model.
(§3) Surface Plasmon Resonance. Protein interactions were measured and analyzed on a BIAcore 3000 instrument (BIAcore AB, Uppsala, Sweden) performed at 25° C. as described previously 20. […] Hepes, pH 7.4, containing 0.15 M NaCl, 0.005% surfactant P20 (HBS) was used as running buffer. […] All other reagents were purchased from BIAcore. […] The remaining activated carboxyl groups were blocked with 1 M ethanolamine (pH 8.5). Subsequently, the flow cells were extensively washed with HBS to generate a stable baseline. […] The flow cells were regenerated by two consecutive 10-second pulses with 10 mM NaOH. Data was analyzed by BIAevaluation software 4.1 (BIAcore).

[6] = target: T5, human B7-H2Ig fusion protein; assay: SPR (BIAcore 3000), ICOSIg injected over B7-H2Ig coupled at 500 RU, 1:1 fit
Procedure: as §3, with “Protein” for “Surface Plasmon Resonance. Protein”, “(3).” for “20.”, “pulse” for “pulses”

[7] = target: T5, human B7-H2Ig fusion protein; assay: as above; remark: listed apart in the source
Procedure: as §2, §3

[8] = target: T5, human B7-H2Ig fusion protein; assay: SPR (BIAcore 3000); ICOSIg injected over B7-H2Ig coupled to a CM5 chip; 1:1 interaction model
Procedure: as §2, §3

B1: human ICOSIg fusion protein (Fc fusion)
chain: EINGSANYEMFIFHNGGVQILCKYPDIVQQFKMQLLKGGQILCDLTKTKGSGNTVSIKSLKFCHSQLSNNSVSFFLYNLDHSHANYYFCNLSIFDPPPFKVTLTGGYLHIYESQLCCQLKF
notes: Bought from R&D Systems; Ig (Fc) part not given
B1: no binding [1]; no binding [2]; no binding [3]. The binding result [4] was “no binding”, the “fold higher affinity than CD28 for binding B7-H2” value [5] was roughly 100 fold and the Kd [6] was 16 nM. For the same binder, the Kd [7] was 16 nM, the koff [8] was 0.004 s⁻¹ and the kon [8] was 240000 M⁻¹ s⁻¹.

Reference: patent US20120219559A1 (Johns Hopkins, published 2012)
